Experimental data taken from publication PMC3947372 (Journal of molecular biology, 2013).

Molecular target: the molecule itself
Test: crystal structure

B1: NaVAe1p, pore-only sodium channel protein derived from the Alkalilimnicola ehrlichei BacNaV NaVAe1 (domain or fragment)
chain: LLRAIPGIAWIALLLLVIFYVFAVMGTKLFAQSFPEWFGTLGASMYTLFQVMTLESWSMGIARPVIEAYPWAWIYFVSFILVSSFTVLNLFIGIIIESMQSAHWEAEDAKRIEQEQRAHDERLEMLQLIRDLSSKVDRLERRSGKR
For B1, the “stoichiometry N” value was 4.
